Assay results: patent US20220127355A1 (INTEGRAL MOLECULAR, published 2022)

T1: Claudin 9 (UniProt O95484 1-217)
T1 construct: Octet KD values: intact claudin protein embedded in virus-like particles (lipoparticles); also called CLDN9
T1 sequence (looked up): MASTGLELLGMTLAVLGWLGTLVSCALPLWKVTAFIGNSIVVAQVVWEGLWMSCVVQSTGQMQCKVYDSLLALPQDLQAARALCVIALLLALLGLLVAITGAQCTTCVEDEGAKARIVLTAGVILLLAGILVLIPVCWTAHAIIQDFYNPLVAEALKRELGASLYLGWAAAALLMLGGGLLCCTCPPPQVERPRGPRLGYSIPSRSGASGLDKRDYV

T2: Claudin 6 (human) (human, UniProt P56747 1-220)
T2 construct: Expressed on transfected HEK-293T cells or naturally on PA-1 cells for flow cytometry; For the Octet KD values it was the intact protein embedded in virus-like particles (lipoparticles); also called hsCLDN6; CLDN6
T2 chain: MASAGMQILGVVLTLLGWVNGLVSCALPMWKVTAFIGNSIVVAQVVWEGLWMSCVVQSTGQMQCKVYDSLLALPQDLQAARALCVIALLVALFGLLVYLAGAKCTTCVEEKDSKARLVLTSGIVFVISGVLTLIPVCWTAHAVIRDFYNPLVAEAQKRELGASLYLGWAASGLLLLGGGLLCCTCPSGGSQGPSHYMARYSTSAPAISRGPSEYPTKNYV

T3: Claudin 4 (UniProt O14493 1-209)
T3 construct: also called CLDN4
T3 sequence (looked up): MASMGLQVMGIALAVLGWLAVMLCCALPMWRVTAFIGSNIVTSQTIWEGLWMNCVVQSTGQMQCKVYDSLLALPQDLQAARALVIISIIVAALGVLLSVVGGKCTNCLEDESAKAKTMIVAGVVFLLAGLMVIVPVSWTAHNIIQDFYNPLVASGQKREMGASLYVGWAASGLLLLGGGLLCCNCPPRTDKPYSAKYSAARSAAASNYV

B1: IM171 (antibody, V domains shown)
VH: AVTLDESGGGLQTPGGALSLVCKASGFDFSSYAMNWVRQAPGKGLEWVAGIGSTGSSTGYGPAVKGRATISRDNGQSTLRLQLNNLRAEDTAIYYCAKSVGNGNSWSGYIATSIDAWGHGTEVIVSS
VL: ALTQPSSVSANLGGTVKLTCSGGSSGYGWYQQKSPGSAPVTVIYSNDKRPSDIPSRFSGSLSGSTGTLTITGVQADDEAVYFCGSTDNSYVGIFGAGTTLTVL
notes: Detected with anti-human IgG Fc secondary; also called LM171
B2: IM173 (antibody, V domains shown)
VH: AVTLDESGGGLQTPGGALSLVCKASGFTFSSYSMFWVRRAPGKGLEWVAGIDSGSTTFYGSAVKGRATISRDNGQSTVRLQLNNLRAEDTATYYCAKDAYGYCGWSGCSADSIDAWGHGTEVIVSS
VL: ALTQPSSVSANPGGTVEITCSGGNNYYGWYQQKSPGSAPVTVIYYNDKRPSDIPSRFSGSKSGSTGTLTITGVQADDEAVYFCGGWDSSGGIFGAGTTLTVL
notes: Detected with anti-human IgG Fc secondary

Assays:
Claudin 9 [1] = molecular target: T1, Claudin 9; assay: biosensor (Forte Octet), intact claudin in virus-like particles (lipoparticles)
Experimental: Affinity of various antibodies against CLDN6 as compared to CLDN9, CLDN3, and CLDN4 was measured using a biosensor. Biosensor affinity measurement of the various antibodies against the proteins was determined using a Forte Octet, which was used for biosensor measurements, using intact claudin proteins embedded in virus-like particles (lipoparticles). The KD for different antibodies is shown below.

Claudin 6 (human) = molecular target: T2, Claudin 6 (human); assay: flow cytometry, PA-1 cells naturally expressing Claudin-6
Claudin 4 = molecular target: T3, Claudin 4; assay: flow cytometry, HEK-293T cells transiently transfected with the indicated claudin; pUC19 = empty vector control
Experimental: (§1) FIG. 2 illustrates the results of a binding assay showing that Claudin 6 MAbs bind to human Claudin 6 preferentially over other Claudin proteins. Human embryonic kidney 293T (HEK-293T) cells were transiently transfected with DNA for the indicated Claudin protein or empty vector along with GFP (pUC) for 22 hours.

Claudin 9 [2] = molecular target: T1, Claudin 9; assay: as above
Experimental: as §1

| Binder | Kd (Claudin 9 [1]) [nM] | EC50 (read off the curve) (Claudin 6 (human)) [µg/mL] | binding result (Claudin 4) | binding result (Claudin 9 [2]) |
| --- | --- | --- | --- | --- |
| B1 | 902 | ~2 | no binding (tested: log [mAb] about -7.2 M) |  |
| B2 |  |  |  | no binding (tested: log [mAb] about -7.2 M) |
